What was measured:
[1] = biological target: T1, human Axl on the cell surface (A549 cells; pancreatic cancer cell lines) (human, UniProt P30530 26-894); assay: flow cytometry on A549 cells, fluorescein-conjugated anti-mouse IgG
T1 construct: whole, on cells; also called cell surface Axl; Axl receptor
T1 sequence (looked up): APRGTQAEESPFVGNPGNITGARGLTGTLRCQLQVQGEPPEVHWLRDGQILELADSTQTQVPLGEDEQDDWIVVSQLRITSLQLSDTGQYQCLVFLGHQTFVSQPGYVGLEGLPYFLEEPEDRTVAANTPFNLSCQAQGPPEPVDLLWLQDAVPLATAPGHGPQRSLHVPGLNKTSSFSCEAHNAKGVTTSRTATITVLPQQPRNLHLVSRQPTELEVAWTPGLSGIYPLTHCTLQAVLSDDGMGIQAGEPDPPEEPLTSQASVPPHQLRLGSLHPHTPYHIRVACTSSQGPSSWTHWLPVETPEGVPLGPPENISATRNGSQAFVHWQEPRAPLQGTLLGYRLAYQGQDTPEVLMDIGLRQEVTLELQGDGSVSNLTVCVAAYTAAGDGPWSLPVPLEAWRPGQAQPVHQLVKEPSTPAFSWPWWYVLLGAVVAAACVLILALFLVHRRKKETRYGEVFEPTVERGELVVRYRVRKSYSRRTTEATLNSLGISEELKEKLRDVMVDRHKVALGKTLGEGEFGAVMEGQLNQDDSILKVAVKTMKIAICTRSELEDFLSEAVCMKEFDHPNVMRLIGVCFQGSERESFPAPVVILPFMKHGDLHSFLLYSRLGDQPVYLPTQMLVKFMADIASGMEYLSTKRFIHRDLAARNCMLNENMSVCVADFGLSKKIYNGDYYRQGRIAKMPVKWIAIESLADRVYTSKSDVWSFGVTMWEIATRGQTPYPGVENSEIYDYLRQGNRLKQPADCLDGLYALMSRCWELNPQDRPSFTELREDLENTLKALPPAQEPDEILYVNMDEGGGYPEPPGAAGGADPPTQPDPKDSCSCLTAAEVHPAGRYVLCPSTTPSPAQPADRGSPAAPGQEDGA
Method: FIG. 2: Flow cytometry analysis of cell surface Axl in A549.
The ability of mouse anti-Axl monoclonal antibodies of the invention to specifically recognize Axl expressing cells was determined by FACS using standard techniques. Briefly, A549 cells (ATCC number: CCL-185) were harvested, stained with purified mouse anti-Axl monoclonal antibodies of the invention at 4° C. for 1 hour, washed three times in PBS-BSA 0.1%, and then stained with fluorescein-conjugated anti-mouse IgG (1:50) (Sigma) at 4° C. in the dark for 45 min. Samples were analyzed on EPICS flow cytometer (Beckman-Coulter, Fullerton, Calif.).

human Mer-Fc = biological target: T2, human Mer-Fc (human, UniProt Q12866 26-499, limits assumed); assay: ELISA, plates with human Mer-Fc, HRP-conjugated anti-mouse IgG, OD 450 nm
T2 construct: also called h-Mer; not shown: Fc part
T2 sequence (looked up): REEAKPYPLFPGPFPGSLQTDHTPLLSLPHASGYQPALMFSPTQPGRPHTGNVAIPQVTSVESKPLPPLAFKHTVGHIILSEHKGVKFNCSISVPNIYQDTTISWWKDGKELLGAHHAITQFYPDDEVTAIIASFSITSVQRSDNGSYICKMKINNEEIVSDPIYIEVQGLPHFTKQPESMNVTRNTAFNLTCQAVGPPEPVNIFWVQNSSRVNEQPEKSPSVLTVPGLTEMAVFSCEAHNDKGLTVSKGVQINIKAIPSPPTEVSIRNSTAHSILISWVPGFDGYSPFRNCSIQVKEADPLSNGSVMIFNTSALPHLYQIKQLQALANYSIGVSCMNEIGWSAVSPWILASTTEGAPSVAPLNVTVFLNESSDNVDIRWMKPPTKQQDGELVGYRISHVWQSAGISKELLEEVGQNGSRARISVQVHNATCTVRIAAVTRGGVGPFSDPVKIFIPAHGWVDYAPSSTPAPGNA
Method: (§1) FIG. 1: ELISA experiments to investigate the affinity and the specificity of mouse monoclonal antibodies against hAxl.
(§2) For cross reaction assay, coated plates were incubated with human Axl-Fc (h-Axl), mouse Axl-Fc (m-Axl) or human Mer-Fc (h-Mer), Tyro-3-Fc (h-Tyro-3) for 1 hour at 37° C. and washed four times in PBST. Plates were incubated with anti-Axl mAbs (2 hours at 37° C.) and washed four times in PBST. Plates were incubated with HRP-conjugated anti-mouse IgG (Sigma) at a 1:2000 dilution in PBST, 1% BSA (1 hour at 37° C.). Finally, an ortho-phenylenediamine solution (Sigma) was added for 30 min at room temperature in the dark and the absorbance was measured at 450 nm.

mouse Axl-Fc = biological target: T3, mouse Axl-Fc (mouse, UniProt Q00993 20-443, limits assumed); assay: ELISA, plates with mouse Axl-Fc, HRP-conjugated anti-mouse IgG, OD 450 nm
T3 construct: also called m-Axl; not shown: Fc part
T3 sequence (looked up): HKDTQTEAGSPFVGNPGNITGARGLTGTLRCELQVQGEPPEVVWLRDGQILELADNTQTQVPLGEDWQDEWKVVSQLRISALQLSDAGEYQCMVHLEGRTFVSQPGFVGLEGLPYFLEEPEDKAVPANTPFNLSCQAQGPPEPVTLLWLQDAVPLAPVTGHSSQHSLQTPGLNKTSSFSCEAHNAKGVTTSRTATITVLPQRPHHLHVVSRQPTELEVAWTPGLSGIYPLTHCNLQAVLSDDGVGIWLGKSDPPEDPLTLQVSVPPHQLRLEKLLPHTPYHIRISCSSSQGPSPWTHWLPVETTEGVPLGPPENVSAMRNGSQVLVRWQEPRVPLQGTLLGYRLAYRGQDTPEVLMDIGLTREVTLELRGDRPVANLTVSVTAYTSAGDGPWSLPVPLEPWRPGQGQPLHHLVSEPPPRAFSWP
Method: as §1, §2

Tyro-3-Fc (h-Tyro-3) = biological target: T4, Tyro-3-Fc (h-Tyro-3) (human, UniProt Q06418 41-428, limits assumed); assay: ELISA, plates with human Tyro-3-Fc, HRP-conjugated anti-mouse IgG, OD 450 nm
T4 construct: The species is read from the label 'h-Tyro-3'; also called human Tyro-3-Fc; not shown: Fc part
T4 sequence (looked up): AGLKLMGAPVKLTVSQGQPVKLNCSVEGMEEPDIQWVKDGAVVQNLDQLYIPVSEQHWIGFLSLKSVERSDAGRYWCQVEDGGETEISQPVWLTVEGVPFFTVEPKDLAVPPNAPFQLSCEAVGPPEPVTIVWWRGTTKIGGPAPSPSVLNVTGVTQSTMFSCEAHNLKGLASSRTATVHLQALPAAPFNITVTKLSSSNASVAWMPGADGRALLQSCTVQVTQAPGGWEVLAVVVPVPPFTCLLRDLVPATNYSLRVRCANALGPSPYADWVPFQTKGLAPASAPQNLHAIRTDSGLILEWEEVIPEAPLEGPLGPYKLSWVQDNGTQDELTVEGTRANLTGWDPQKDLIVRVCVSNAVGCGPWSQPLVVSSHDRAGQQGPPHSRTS
Method: as §1, §2

[2] = biological target: human Axl extracellular domain fused to human Fc domain (hAxl-hFc protein; R&D system) (human) (UniProt P30530); assay: SPR (BIAcore), hAxl-hFc amine-coupled to a CM5 chip; 20G7-D9 (666 nM by the text) injected first, lower panel
[3] = biological target: human Axl extracellular domain fused to human Fc domain (hAxl-hFc protein; R&D system) (human) (UniProt P30530); assay: SPR (BIAcore), hAxl-hFc amine-coupled to a CM5 chip; 20G7-D9 (666 nM by the text) injected second, without removing Gas6, upper panel
[4] = biological target: human Axl extracellular domain fused to human Fc domain (hAxl-hFc protein; R&D system) (human) (UniProt P30530); assay: SPR (BIAcore 3000), hAxl-hFc amine-coupled on CM5 chip, mAb injected at 2 to 133 nM, 25 °C, 1:1 Langmuir model; hAxl-hFc on the CM5 chip, mAb injected at 2 to 133 nM, 25 C

B1: mouse anti-Axl monoclonal antibody 20G7-D9 (antibody, V domains shown)
VH: QVQLQQSGAELMKPGASVKMSCKAAGYTFSSYWIEWVRQRPGHGLEWIGEIFPGSDSTNYNEKFNDRATFTADTSSNTAYMQLSSLTSEDSAVYYCARPLYYGSSAWFAYWGQGTLVTVSA
VL: DIQMTQSPASLSASVGETVTITCRASENIYSYLTWYQQKQRKSPQLLVYNAKTLAEGVPSRFSGSGSGTQFSLKINSLQPEDFGTYYCQHHYATPWTFGGGTKVEIK
notes: the irrelevant control Px is called 'murine IgG1 isotype mAb'; also called mAb 20G7-D9; mAb 20G7D9
binding result [1]: binds | binding result (human Mer-Fc): no binding | binding result (mouse Axl-Fc): no binding | binding result (Tyro-3-Fc (h-Tyro-3)): no binding | response (RU) [2]: 2530 RU | response (RU) [3]: 2280 RU | Kd [4]: 53 nM

— US20140302041A1 (ORIBASE PHARMA, published 2014)
